# According to patent WO2016038310A1 (dated 2016):
# B1: anticorps monoclonal A8 (monoclonal antibody A8, hybridoma CNCM I-4828) (antibody, V domains shown)
# VH: EVQLQESGGGLVQPGGSRKLSCAASGFTFSDFGTHWIRQAPEKGLEWVAYISSGSSTRYYADTVKGRFTISRDDPKNTLFLQMTSLRSEDTAMYYCARSYDGYHVPSFAYWGQGTLVTVSA
# VL: DVLMTQTPLSLSVSLGDQASISCRSSQNIVHSNGNTYLEWYLQKPGQSPKLLIYRVSNRFSGIPDRFSGSSSGTDFTLKISRVEAEDLGVYYCFQGSHVPLTFGAGTKLELK
# notes: Purified antibody or hybridoma supernatant, depending on the assay; also called AcM A8; ligand A8
# What was measured:
# [1] = molecular target: T1, FSH ovine dimérique (ovine follicle-stimulating hormone) (ovine, UniProt P01218 25-120; P01227 20-129); assay: cell-based or functional assay
# [2] = molecular target: T2, FSH humaine recombinante Gonal-F (recombinant human FSH, Merck Serono) (human, UniProt P01215 25-116; P01225 19-129); assay: SPR (Biacore T100), A8 captured on anti-mouse Fc, hFSH injected
# T2 construct: Commercial recombinant preparation; also called hFSH Gonal F; hFSH
# [3] = molecular target: T1, FSH ovine dimérique (ovine …); assay: SPR (Biacore T100), A8 captured on anti-mouse Fc, oFSH injected
# [4] = molecular target: T2, FSH humaine recombinante Gonal-F …; assay: SPR (Biacore T100), A8 captured on anti-mouse Fc, hFSH injected 1,56 to 50nM
# [5] = molecular target: T1, FSH ovine dimérique (ovine …); assay: SPR (Biacore T100), A8 captured on anti-mouse Fc, oFSH injected 1,56 to 50nM
# [6] = molecular target: T3, eCG commerciale Chronogest (MSD) (equine, UniProt P01220 25-120; P08751 21-169); assay: ELISA saturation binding, Kd estimated with GraphPad Prism (one site - specific binding)
# T3 construct: Commercial preparation; also called eCG Chronogest
# [7] = molecular target: T4, hCG Chorulon (human chorionic gonadotropin extracted from urine, MSD) (human, UniProt P01215 25-116; P0DN86 21-165); assay: as above
# T4 construct: Commercial preparation
# [8] = molecular target: T5, hCG Endo 5000 (purified human chorionic gonadotropin, Schering-Plough) (human, UniProt P01215 25-116; P0DN86 21-165); assay: as above
# T5 construct: Commercial preparation; also called Gonadotropine Chorionique Endo5000
# T5 sequence (P01215 25-116 limits assumed, chain 1 of 2, other chains not shown): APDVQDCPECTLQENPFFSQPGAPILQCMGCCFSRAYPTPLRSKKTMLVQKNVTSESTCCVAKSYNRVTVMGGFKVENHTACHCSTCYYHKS
# T2 sequence (P01215 25-116 limits assumed, chain 1 of 2): as the sequence (P01215 25-116 limits assumed, chain 1 of 2, other chains not shown) above
# T2 sequence (P01225 19-129 limits assumed, chain 2 of 2): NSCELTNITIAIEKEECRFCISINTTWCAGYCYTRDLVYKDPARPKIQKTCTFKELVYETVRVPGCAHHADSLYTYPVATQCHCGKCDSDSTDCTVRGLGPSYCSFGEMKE
# T4 sequence (P01215 25-116 limits assumed, chain 1 of 2, other chains not shown): as the sequence (P01215 25-116 limits assumed, chain 1 of 2, other chains not shown) above
# T3 sequence (P01220 25-120 limits assumed, chain 1 of 2): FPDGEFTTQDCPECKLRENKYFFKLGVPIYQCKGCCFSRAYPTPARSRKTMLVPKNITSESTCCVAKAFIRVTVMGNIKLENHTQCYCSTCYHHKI
# T3 sequence (P08751 21-169 limits assumed, chain 2 of 2): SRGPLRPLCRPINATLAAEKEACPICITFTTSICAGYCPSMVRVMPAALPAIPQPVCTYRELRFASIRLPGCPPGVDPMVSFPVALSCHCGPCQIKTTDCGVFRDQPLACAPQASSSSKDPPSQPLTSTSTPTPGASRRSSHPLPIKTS
binder,measurement,setting,value
B1,"sécrétion d'AMPc (cAMP secretion), bovine granulosa cells, oFSH 3ng/ml",[1],2.1 fold
same,"sécrétion d'AMPc (cAMP secretion), bovine granulosa cells, oFSH 12,5 ng/ml",[1],1.5 fold
same,koff,[2],0.0011 s⁻¹
same,kon,[2],240000 M⁻¹ s⁻¹
same,koff,[3],0.00082 s⁻¹
same,kon,[3],130000 M⁻¹ s⁻¹
same,Kd,[4],4.7 nM
same,Kd,[5],6.3 nM
same,Kd,[6],~100 nM
same,Kd,[7],~100 nM
same,Kd,[8],~100 nM
